In patent publication US10441541B2, “Methods and compositions for treating osteoarthritis and promoting cartilage formation” (New York University, priority 2015, dated 2019):

Assays:
[1] = tested on: neonatal murine chondrocytes; experiment: Aggrecan expression in cultured chondrocytes, Alcian Blue staining; type: cell-based; settings: 1 μM
From the text: (Gosset et al., Nat Protoc 2008; 3:1253-1260). […] Following digital quantitation of alcian-blue stained aggrecan in the tissue wells, aggrecan levels are expressed as % control (±SEM) as provided in FIG. 4B.

[2] = target: T1, A3 adenosine receptor (Homo sapiens, UniProt P0DMS8); settings: cited from earlier work
T1 sequence (P0DMS8 1-318): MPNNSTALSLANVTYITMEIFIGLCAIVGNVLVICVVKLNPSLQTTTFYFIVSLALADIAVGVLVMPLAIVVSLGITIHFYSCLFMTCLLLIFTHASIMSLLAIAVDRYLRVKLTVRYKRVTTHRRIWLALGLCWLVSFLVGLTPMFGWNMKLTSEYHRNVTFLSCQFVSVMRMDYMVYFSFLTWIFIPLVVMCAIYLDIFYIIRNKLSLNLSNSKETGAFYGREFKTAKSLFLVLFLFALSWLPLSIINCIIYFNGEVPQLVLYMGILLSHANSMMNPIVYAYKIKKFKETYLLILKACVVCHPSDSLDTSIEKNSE

[3] = tested on: murine chondrocytes; experiment: Expression of adenosine-related enzymes and transporters in chondrocytes (RT-PCR, western blot, immunofluorescence); type: cell-based, mouse
Protocol: (§1) Articular chondrocytes were obtained from C57BL/6 WT or A2AKO newborn mice following a protocol previously described (Thirion et al., Methods in Molecular Medicine 2004; 100:1-14), Primary chondrocytes (80% confluence) were starved for 5h. Cells were treated for 24h with mouse recombinant IL-1β (5 ng/ml) in DMEM containing 10% FBS and 1% Penicillin-Steptomycin. For intracellular ATP assay, cells were collected and lysed with RIPA buffer containing proteases and phosphatase inhibitors. […] ATP was assayed using a bioluminescent ATP determination kit following the manufacturer's instructions. Adenosine was extracted and tested by HPLC as previously described. ATP and adenosine data were normalized following protein quantification.
After cell treatments, the total protein extracts were collected and stored at −80° C. Total protein fractions were quantified using the BCA kit (Thermo Scientific). Western blotting was performed by electrophoresing […] protein through a 10% polyacrylamide gel followed by transfer of proteins to nitrocellulose membranes. […] Membranes were scanned with Li-cor Odyssey equipment and the intensities of the protein bands were quantified by densitometric analysis using Image Studio 2.0 38 software. […]

[4] = tested on: primary murine chondrocytes; experiment: ATP and adenosine content and release of primary chondrocytes after IL-1β; type: cell-based, mouse; settings: 5 ng/ml for 24 hours
Protocol: as §1

[5] = tested on: rat tibial plateau explants; experiment: Adenosine release from tibial plateau explants, with and without mechanical loading; type: cell-based
Protocol: 14 to 19 week old male Sprague-Dawly rats were sacrificed and their tibias were harvested. The soft tissue was removed from the bone and the proximal tibia was cut in the growth plate region by using a Low Speed Diamond Wheel Saw-Model 650 (South Bay Technologies, CA, USA). Tibia surface was cut separating the medial and the lateral condyle. Samples were incubated in media containing DMEM-F12, FBS 10%, 100 ug/ml of ascorbic acid, 2 mM of […], 1% of Penicillin, Streptomycin and amphotericin. The explants were incubated with or without IL-1β (5 ng/ml) for 24 hours. After incubation the samples were placed in a glass plate in new media without FBS. The loading was programmed using the block waveform feature in Wintest 7 software of BOSE Electroforce 3200 system (Bose Inc., MN, USA). The specimens were preloaded with uniaxial compressive load that was applied at 0.005 mm/s loading rate under displacement control up to 0.01 mm. Samples undergo cyclic load at 2 Hz for 1800 cycles at 1.5N compressive load under load control. Dwell for 2700s immediately after the end of 1800th cycle. Media samples were collected after 1, 10 and 15 minutes during loading and 15 and 30 minutes after loading. Samples collected for ATP assay were stored immediately on ice.

Molecule: CCNC(=O)[C@H]1O[C@@H](n2cnc3c(N)nc(NCCc4ccc(CCC(=O)O)cc4)nc32)[C@H](O)[C@@H]1O [CGS21680]
- aggrecan expression ([1]; Alcian Blue staining of cultured chondrocyte matrix, preliminary experiments): nearly two-fold increase
- amount of alcian blue-stained material in wells ([1]; in the absence or presence of IL-1): greatest amount of alcian blue-stained material

Molecule: Nc1ncnc2c1ncn2[C@@H]1O[C@H](CO)[C@@H](O)[C@H]1O [adenosine]
- affinity for adenosine [2]: low-micromolar range

B1: IL-1β: Mouse and rat recombinant Il-1β from R&D Systems, inflammatory stimulus (protein, UniProt P10749 118-269, looked up)
Interleukin-1 beta: VPIRQLHYRLRDEQQKSLVLSDPYELKALHLNGQNINQQVIFSMSFVQGEPSNDKIPVALGLKGKNLYLSCVMKDGTPTLQLESVDPKQYPKKKMEKRFVFNKIEVKSKVEFESAEFPNWYISTSQAEHKPVFLGNNSGQDIIDFTMESVSS
modifications: rat protein also used
notes: Mouse and rat recombinant Il-1β from R&D Systems, inflammatory stimulus
- message of ENTPD1, NT5E, PANX1, SLC29A1, SLC29A2 and ANKH ([3]; 5 ng/ml for 24 hours, RT-PCR, n=4): significantly decrease message
- NT5E protein expression and localization on chondrocyte surface ([3]; 5 ng/ml, western blot and immunofluorescence): decreased NTSE protein expression and its localization on chondrocyte surface
- ATP released into the supernates [4]: 66±3 % of control
- adenosine concentration in the supernates [4]: 65 % of control
- intracellular ATP [4]: 61±9 % of control
- adenosine concentration in the supernates ([4]; n=9, control 143±14 nM): 94 ± 14 nM
- adenosine release from cartilage explants ([5]; explants without loading): reduced adenosine release
- adenosine release after weight loading ([5]; pre-treatment 5 ng/ml for 24 hours, loading within physiologic range, n=5, without pre-treatment 1657±177 nM): 960 ± 57 nM
